The record followed here is PMC4469607.

For orientation: stoichiometry N means the number of molecules, sites or subunits per partner or assembly.

Assay [1] concerns the target Hcp from Acinetobacter baumannii AB0057, C-terminal His-tagged (Acinetobacter baumannii strain AB0057). Kind of assay: crystal structure; X-ray, 1.55 Å, space group P6; crystals from 2.0 M ammonium sulfate, 0.1 M Hepes pH 7.5, 4°C; hexamer made by the 6-fold crystallographic symmetry; interfaces analysed with PISA.
For assay [2], the target named is Hcp from Acinetobacter baumannii AB0057, tag-free (Acinetobacter baumannii strain AB0057). Kind of assay: negative-staining electron microscopy; Hcp at 0.02 mg/ml in 20 mM Tris-HCl pH 7.5, 200 mM NaCl, 2 mM DTT, stained with 1% uranyl formate; reference-free 2D classification.
Assay [3] shares this target. Kind of assay: AUC; sedimentation equilibrium, 20°C, Hcp at 1.0 and 2.5 mg/ml, 20 mM Tris-HCl pH 7.5, 200 mM NaCl, 0.2 mM DTT, 2% glycerol.

For the substance “Hcp from Acinetobacter baumannii AB0057, C-terminal His-tagged (natural protein)”, the stoichiometry N in assay [1] was determined as 6. As to “Hcp from Acinetobacter baumannii AB0057, tag-free (natural protein)”, the stoichiometry N in assay [2] and in assay [3] was 6 in each case.
